Data as given in the supplement of paper PMC10567573.

B1: PLD5 (parent)
chain: VTYMNMTAYNKGRLQSSFWIVDKQ
B2: HSP90AB1 (parent)
chain: YHTSQSGDEMTSLSEYVSRMKETQ

Variants of: B1
Assay: protein stability index of a GFP-peptide fusion (GPS, HEK-293T) (PSI 1-6); higher = more stable
Conditions: c terminus: a fixed tail appended
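Note: lentivirally expressed fusions sorted by FACS into six bins by GFP to DsRed ratio, PSI derived from sequencing read proportions per bin multiplied by bin number.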

Protein stability index, by site and new letter:
Y9: F 3.22, H 1.75, Q 1.33, K 2.02, E 2.11, V 1.81, A 1.62, I 2.59, N 1.78, R 1.58, W 3.74, D 2.58, L 1.92, M 2.17, P 1.1, G 2.11, S 1.83, T 2.06, C 2.55
N10: E 3.78, K 1.89, A 2.67, D 2.75, H 1.97, C 2.87, L 1.28
A8: P 3.56, V 3.16, D 1.1, Q 1.5, F 2.41, S 2.24, L 2.22, R 1.9, I 3.64, N 2.29, Y 2.39, G 2.11, C 2.68, T 2.02, H 1.93, E 1.46, M 2.46, K 1.95
N5: R 3.38, W 3.13, D 1.45, P 1.49, I 2.99, F 2.69, A 3.48, M 3.53, L 3, T 2.08, E 2.76
M4: D 1.89, Y 2.31, K 2.05, V 3.21, P 2.09, S 3.45, A 1.98, E 2.3, Q 2.18, F 3.33, L 1.68, G 2.13, N 1.5, C 3.5, H 1.89, R 1.34, T 2.44
M6: I 2.91, D 2.13, T 1.58, Y 2.08, H 1.93, S 1.87, V 2.89, K 1.58, N 1.76, L 3.25, R 2.06, C 2.61, A 1.18, E 1.65, P 1.6, Q 2.1, F 2.16, G 2.46
Y3: F 2.88, V 2.33, T 1.66, S 2.51, D 3.2, W 3.91, E 3.13, R 2.4, Q 1.76, C 1.55, M 2.14, P 2.06, G 1.59, K 1.62, N 3.08, H 1.67, A 1.99
T2: N 1.29, S 1.87, Q 2.08, D 1.67, R 1.91, H 2.6, M 2.88, K 2.52, G 2.08, C 2.25, A 2.55, P 1.68, I 1.76, E 1.87, W 1.4
T7: H 2.05, V 2.61, Q 2.36, D 1.87, F 1.89, L 2.3, P 1.22, A 3.57, N 2.46, E 1.02, S 2.21
V1: M 2.45, H 1.61, Y 3.25, R 1.77, L 1.97, G 2.21, N 2.88, C 1.49, S 2.17, K 2.73, T 1.54, A 1.44, Q 1.9, E 2.35, P 2.11, D 1.78, W 2.46

Variants of: B2
Assay: as above
Conditions: c terminus: a fixed tail appended

Protein stability index, by site and new letter:
R19: L 3.22, H 3.68, V 3.67, A 3.72, P 3.47, N 4.32, Y 3.7, K 4.27, S 3.8, W 3.46, I 3.66, F 3.15, Q 4.15, E 4.66, M 3.89, T 4.18, G 4.09
